Data: patent publication US20250250357A1 (NANJING ZAIMING PHARMACEUTICAL, published 2025)
Values belong to the binder of their own block, whether it stands above or below them.

Key:
[1] = target: T1, human MSLN-R1-his protein (human, UniProt Q13421 296-390); experiment: ELISA, antibody 1 nM
T1 construct: also called hMSLN-R1-his; human MSLN-R1 protein
T1 chain: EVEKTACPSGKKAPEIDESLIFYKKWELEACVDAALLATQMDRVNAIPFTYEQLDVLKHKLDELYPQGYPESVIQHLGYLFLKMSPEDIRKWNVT

[2] = target: T1, human MSLN-R1-his protein; experiment: ELISA, antibody 10 nM
[3] = target: T1, human MSLN-R1-his protein; experiment: ELISA, antibody 0.1 nM
[4] = target: T1, human MSLN-R1-his protein; experiment: ELISA, antibody 100 nM
[5] = target: T1, human MSLN-R1-his protein; experiment: ELISA, antibody 0.01 nM
[6] = target: T1, human MSLN-R1-his protein; experiment: ELISA, antibody 0.001 nM
[7] = target: T1, human MSLN-R1-his protein; experiment: ELISA, antibody 0.0001 nM
[8] = target: T1, human MSLN-R1-his protein; experiment: ELISA, antibody 0 nM (blank)
[9] = target: T2, human MSLN-FL-his protein (human, UniProt Q13421 296-580); experiment: ELISA
T2 construct: also called hMSLN-FL-his; human MSLN full-length protein

OD450 nm [1]: 0.05
OD450 nm [2]: 0.06
OD450 nm [3]: 0.05
OD450 nm [4]: 0.08
OD450 nm [5]: 0.06
OD450 nm [6]: 0.05
OD450 nm [7]: 0.04
OD450 nm [8]: 0.05
B1: Tab107 (YP3, hIgG1) (antibody, V domains shown)
VH: QEQLVESGGGLVQPGASLTLTCTASGIDFSRYYMCWVRQAPGKGLEGIACIYIGGSGSTYYASWAKGRFTISKASSTTVTLQMTSLTAADTATYFCARGTNLNYIFRLWGPGTLVTVSS
VL: DVVMTQTPSPVSAAVGGTVTIKCQASQSINNGLAWYQQKPGQPPRLLIYSASNLESGVPSRFKGSGSGTEFTLTISDLECDDAATYYCQCIWDGNSYVNAFGGGTEVVVRT
notes: also called YP3 human IgG1 antibody

binding result [9]: no binding (tested: up to 100 nM)
B2: S009-F3.38.10 (antibody, human IgG1, kappa, V domains shown)
VH: EVQLQQSGPVLVKPGASVKMSCEASGYIFTDYYMNWVKKSHGKSLEWIGVINPKNGVISHNQKFKGKATLTVDKSSNTAYMELSSLTSEDSAVYYCANYGSRFYAMDYWGQGTSVTVSS
VL: DVVMTQTPLSLPVSLGDQASISCRSSQSLIHSDGNTYLQWYLQKSGQSPKLLIYKVSNRFSGVPDRFSGSGSGTDFTLKISRVETEDLGVYFCSQTTHVPFTFGSGTKLEIKR
notes: chimeric, human IgG1/kappa
